Results: US20070042345

System: F2C intracellular calcium ion indicator protein (GAP43 palmitoylation signal - ECFP - two alpha-spectrin calpain sensitive sequences - EYFP)

purified µ-calpain (Calpain I, Calbiochem, California, U.S.A.)
Western blot for fragmented F2C after incubation with purified µ-calpain in Ca-EGTA buffer: fragmented F2C signal was not detected (data not shown)
